As a reminder, the IC50 is the concentration at which inhibition is half-maximal. A high value points to lower potency.

Sequences and labels used below:
B1: I-751 (peptide)
peptide: Ac-[αAllylPro]DL[B5(4)]DEAAFN[S8]F[Bta]S-NH2
modifications: staple 1-4, 4-11; also: olefin E/Z not assigned, later-eluting staple isomer
notes: Stapled peptide; shares its description with I-750, later eluting HPLC peak (staple isomer composition); also called Ac-PL3-Asp-Leu-B5-Asp-Glu-Ala-Ala-Phe-Asn-S8-Phe-BztA-Ser-NH2
B2: I-752 (peptide)
peptide: Ac-[αAllylPro]DL[B5(4)]DEAAFN[S8]F[Bta]N-NH2
modifications: staple 1-4, 4-11; also: olefin E/Z not assigned, earlier-eluting staple isomer
notes: Stapled peptide; also called Ac-PL3-Asp-Leu-B5-Asp-Glu-Ala-Ala-Phe-Asn-S8-Phe-BztA-Asn-NH2
B3: I-753 (peptide)
peptide: Ac-[αAllylPro]DL[B5(4)]DEAAFN[S8]F[Bta]N-NH2
modifications: staple 1-4, 4-11; also: olefin E/Z not assigned, later-eluting staple isomer
notes: as for B2
B4: I-441 (peptide)
peptide: Ac-[αAllylPro]DA[B5(21)]DEAAFN[S8][Phe(2-NO2)][Bta]Q-NH2
modifications: staple 1-4, 4-11
notes: Stapled peptide composition
B5: I-463 (peptide)
peptide: Ac-[αAllylPro]DA[B5(21)]DEAAFN[PyrS3″]F[Bta]Q-NH2
modifications: staple 1-4, 4-11; also: earlier-eluting HPLC staple isomer
notes: Stapled peptide; earlier-eluting HPLC peak (staple isomer composition)
B6: I-453 (peptide)
peptide: Ac-[αAllylPro]DA[B5(21)]DEAA[Phe(2-F)]N[S8]F[Bta]Q-NH2
modifications: staple 1-4, 4-11
notes: Stapled peptide composition
B7: I-469 (peptide)
peptide: Ac-[αAllylPro]DI[B5(6)]DDAAFN[S8]F[Bta]H-NH2
modifications: staple 1-4, 4-11; also: staple isomer composition: earlier-eluting HPLC peak
notes: as for B5
B8: I-468 (peptide)
peptide: Ac-[αAllylPro]DI[B5(6)]DDAAFN[S8]F[Bta]Q-NH2
modifications: staple 1-4, 4-11; also: staple isomer composition: later-eluting HPLC peak
notes: Stapled peptide; later-eluting HPLC peak (staple isomer composition)
B9: I-467 (peptide)
peptide: Ac-[αAllylPro]DI[B5(6)]DDAAFN[S8]F[Bta]Q-NH2
modifications: staple 1-4, 4-11; also: staple isomer composition: earlier-eluting HPLC peak
notes: as for B5
B10: I-450 (peptide)
peptide: Ac-[αAllylPro]DA[B5(21)]DEAA[2Thi]Q[S8][Phe(3-F)]WQ-NH2
modifications: staple 1-4, 4-11
notes: Stapled peptide composition
B11: I-454 (peptide)
peptide: Ac-[αAllylPro]DA[B5(21)]DEAA[Phe(3-F)]N[S8]F[Bta]Q-NH2
modifications: staple 1-4, 4-11
notes: Stapled peptide composition
B12: I-464 (peptide)
peptide: Ac-[αAllylPro]DA[B5(21)]DEAAFN[PyrS3″]F[Bta]Q-NH2
modifications: staple 1-4, 4-11; not fully specified; printed as Ac-PL3-Asp-Ala-B5-Asp-Glu-Ala-Ala-Phe-Asn-PyrS3-Phe-BztA-Gln-NH2
notes: as for B8

Starred links: 1 amine or outer side, 2 acyl side, 3 side chain; linkers in the order of their positions; H or OH if unused. Positions of bridges follow the written chain, without caps; N, C: chain ends. Non-standard residues stand in square brackets, D forms with d. Primed or numbered codes have the meaning given here. PyrS3″ = (S)-3-amino-1-((hex-5-en-1-yloxy)carbonyl)pyrrolidine-3-carboxylic acid (stapling residue), C=CCCCCOC(=O)N1CC[C@@](N[*:1])(C(=O)[*:2])C1; B5(4) = 2,2-bis(4-pentenyl)glycine = 2-amino-2-(pent-4-en-1-yl)hept-6-enoic acid (stitching residue), C=CCCCC(CCCC=C)(N[*:1])C(=O)[*:2]; B5(21) = 2-amino-2-(pent-4-en-1-yl)hept-6-enoic acid, bis(4-pentenyl)glycine (stitching residue), C=CCCCC(CCCC=C)(N[*:1])C(=O)[*:2]; B5(6) = 2-amino-2-(pent-4-en-1-yl)hept-6-enoic acid (bis(4-pentenyl)glycine), stitching residue, C=CCCCC(CCCC=C)(N[*:1])C(=O)[*:2]; Phe(2-NO2) = N[C@@H](Cc1ccccc1[N+](=O)[O-])C(=O)O; Phe(3-F) = N[C@@H](Cc1cccc(F)c1)C(=O)O; Phe(2-F) = N[C@@H](Cc1ccccc1F)C(=O)O; Bta = N[C@@H](Cc1csc2ccccc12)C(=O)O; αAllylPro = C=CC[C@@]1(C(=O)O)CCCN1; 2Thi = N[C@@H](Cc1cccs1)C(=O)O; S8 = C=CCCCCCC[C@](C)(N)C(=O)O

In one test the target is T1, B-cat-Halo (NanoBRET construct expressed in HEK293 cells) (UniProt P35222 1-781, HaloTag NanoBRET 618 Ligand bound in the assay).
T1 sequence (looked up): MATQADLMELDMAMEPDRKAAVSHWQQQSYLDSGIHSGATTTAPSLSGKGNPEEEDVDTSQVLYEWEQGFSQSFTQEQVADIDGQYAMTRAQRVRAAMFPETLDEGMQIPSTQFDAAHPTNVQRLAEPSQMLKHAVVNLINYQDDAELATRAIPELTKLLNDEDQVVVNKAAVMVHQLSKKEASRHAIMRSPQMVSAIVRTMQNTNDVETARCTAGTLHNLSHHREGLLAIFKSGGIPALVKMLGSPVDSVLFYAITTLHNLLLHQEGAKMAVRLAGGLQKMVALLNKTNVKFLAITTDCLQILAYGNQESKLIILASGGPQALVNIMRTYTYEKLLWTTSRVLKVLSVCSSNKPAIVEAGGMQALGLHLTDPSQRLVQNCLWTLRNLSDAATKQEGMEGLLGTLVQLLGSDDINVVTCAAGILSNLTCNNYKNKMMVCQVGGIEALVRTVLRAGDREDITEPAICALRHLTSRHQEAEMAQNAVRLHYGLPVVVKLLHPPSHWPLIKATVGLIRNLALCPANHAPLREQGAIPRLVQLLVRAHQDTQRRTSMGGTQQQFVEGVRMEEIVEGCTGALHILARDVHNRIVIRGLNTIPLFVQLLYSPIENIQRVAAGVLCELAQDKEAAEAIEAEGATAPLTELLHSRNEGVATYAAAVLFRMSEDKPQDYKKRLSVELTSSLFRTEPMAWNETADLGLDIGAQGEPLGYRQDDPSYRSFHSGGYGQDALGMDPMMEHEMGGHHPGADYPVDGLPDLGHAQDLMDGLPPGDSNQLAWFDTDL
As to the kind of experiment: cell-based or functional assay.
Regarding B1, the “NanoBRET Abs IC50” value was determined as 7100 nM.

In the case of B2, the “NanoBRET Abs IC50” value came out at 9900 nM.

With B3, the “NanoBRET Abs IC50” value was 10000 nM.

For another test, the target named is T2, full-length beta-Catenin (Uniprot ID P35222) (Homo sapiens (Human), UniProt P35222 1-781).
T2 construct: also called bCat; B-Catenin
T2 sequence: T1 sequence (looked up)
The test is described as follows: fluorescence polarization competition; full-length beta-catenin, competitor 5FAM-TCF4(10-53) probe. In short, it runs like this: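 Incubate 60 minutes at 20° C. away from light, then read polarization in duplicate. Fit to 1:1 binding with hill slope.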
Background: Polarisation of emitted light reports the rotation of a fluorescent probe.
B4 returned an IC50 of 133 nM.

Turning to B5, the IC50 stood at 92 nM.

As to B6, the IC50 is 1550 nM.

B7 displayed an IC50 of 27 nM.

Molecule B8 had an IC50 of 27 nM.

As for B9, the IC50 stood at 44 nM.

Turning to B10, the IC50 was 3720 nM.

B11: the IC50 stood at 125 nM.

For the molecule B12, the 50% inhibitory concentration (IC50) was 57 nM.

The next test deals with T3, full-length beta-Catenin (Uniprot ID P35222) (Homo sapiens (Human), UniProt P35222 1-781).
T3 construct: also called bCat; B-Catenin
T3 sequence: T1 sequence (looked up)
The test is described as follows: fluorescence polarization competition; full-length beta-catenin with 5FAM-TCF4(10-53) probe as competitor. The method, then:
The plate was incubated protected from light for 60 minutes at 20° C. prior to read. Reads were performed on a CLARIOstar plate reader (BMG Labtech) in duplicate, and data were fitted to a 1:1 binding model with hill slope using an in-house script. All provided concentrations are final concentrations.
For the molecule B1, the IC50 was 29 nM.

In the case of B2, the IC50 was determined as 16 nM.

With B3, the IC50 is 14 nM.
